In patent publication US20110301079A1 (INSTITUTO DI RICERCHE DI BIOLOGIA MOLECOLARE P ANGELETTI S …, published 2011):
Groups on a side chain read outwards from the residue. *: point of attachment. cholesteroyl = cholesterol group linked to a cysteine residue via the side-chain thiol; Succinimide(1-Et,3-yl) = CCN1C(=O)CC(*)C1=O

T1: mouse NMUR1-ATG (mouse, UniProt O55040 1-428)
T1 sequence (looked up): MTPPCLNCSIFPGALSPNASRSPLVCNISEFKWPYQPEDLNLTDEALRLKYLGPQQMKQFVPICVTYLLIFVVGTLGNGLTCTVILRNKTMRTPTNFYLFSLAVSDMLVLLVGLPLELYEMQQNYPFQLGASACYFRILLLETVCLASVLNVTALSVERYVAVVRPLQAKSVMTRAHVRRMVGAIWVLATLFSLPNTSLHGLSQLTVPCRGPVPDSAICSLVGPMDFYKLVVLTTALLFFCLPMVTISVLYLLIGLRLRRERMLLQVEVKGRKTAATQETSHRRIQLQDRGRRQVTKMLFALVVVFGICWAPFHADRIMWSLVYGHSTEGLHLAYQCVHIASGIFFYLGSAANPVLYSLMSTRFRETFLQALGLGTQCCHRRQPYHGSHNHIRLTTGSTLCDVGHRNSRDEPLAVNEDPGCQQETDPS

T2: human NMUR1 (human, UniProt Q9HB89 1-426)
T2 sequence (looked up): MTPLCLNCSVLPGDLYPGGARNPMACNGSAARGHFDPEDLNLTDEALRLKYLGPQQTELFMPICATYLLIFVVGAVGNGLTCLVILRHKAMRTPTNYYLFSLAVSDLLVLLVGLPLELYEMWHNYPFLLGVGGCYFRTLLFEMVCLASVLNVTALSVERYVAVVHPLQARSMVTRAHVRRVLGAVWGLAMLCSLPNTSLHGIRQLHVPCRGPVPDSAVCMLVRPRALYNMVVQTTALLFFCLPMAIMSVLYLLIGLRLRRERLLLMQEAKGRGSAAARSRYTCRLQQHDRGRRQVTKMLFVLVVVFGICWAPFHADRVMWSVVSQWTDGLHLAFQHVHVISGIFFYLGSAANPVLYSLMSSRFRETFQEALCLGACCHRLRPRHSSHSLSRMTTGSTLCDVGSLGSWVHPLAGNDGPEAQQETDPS

T3: dog NMUR1-ATG (dog, UniProt A0A8I3S7S8 1-422)
T3 sequence: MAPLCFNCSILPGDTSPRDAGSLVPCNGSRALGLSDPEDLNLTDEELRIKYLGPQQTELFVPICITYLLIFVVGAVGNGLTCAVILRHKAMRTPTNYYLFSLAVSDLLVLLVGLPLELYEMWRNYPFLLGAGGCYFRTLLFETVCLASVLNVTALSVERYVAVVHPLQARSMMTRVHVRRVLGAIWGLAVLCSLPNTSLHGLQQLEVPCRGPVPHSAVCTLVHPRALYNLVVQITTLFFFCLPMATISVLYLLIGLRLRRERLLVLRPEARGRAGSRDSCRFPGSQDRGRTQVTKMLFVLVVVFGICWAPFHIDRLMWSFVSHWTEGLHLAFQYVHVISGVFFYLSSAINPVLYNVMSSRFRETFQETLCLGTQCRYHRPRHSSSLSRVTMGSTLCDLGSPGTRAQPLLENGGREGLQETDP

B1: NMS1 (Ac-C2ILQRGSGTAAVDFTKKDHTATWGRPFFLFRPRN-CONH2) (peptide)
peptide: Ac-C([maleimide-(PEG)2 40 kDa])ILQRGSGTAAVDFTKKDHTATWGRPFFLFRPRN-NH2
B2: native human Neuromedin S peptide (NMS) (peptide)
peptide: H-ILQRGSGTAAVDFTKKDHTATWGRPFFLFRPRN-NH2
B3: NMS3 (Ac-C1ILQRGSGTAAVDFTKKDHTATWGRPFFLFRPRN-CONH2) (peptide)
peptide: Ac-C(Succinimide(1-Et,3-yl))ILQRGSGTAAVDFTKKDHTATWGRPFFLFRPRN-NH2
SMILES: CC[C@H](C)[C@H](NC(=O)[C@H](CSC1CC(=O)N(CC)C1=O)NC(C)=O)C(=O)N[C@@H](CC(C)C)C(=O)N[C@@H](CCC(N)=O)C(=O)N[C@@H](CCCNC(=N)N)C(=O)NCC(=O)N[C@@H](CO)C(=O)NCC(=O)N[C@H](C(=O)N[C@@H](C)C(=O)N[C@@H](C)C(=O)N[C@H](C(=O)N[C@@H](CC(=O)O)C(=O)N[C@@H](Cc1ccccc1)C(=O)N[C@H](C(=O)N[C@@H](CCCCN)C(=O)N[C@@H](CCCCN)C(=O)N[C@@H](CC(=O)O)C(=O)N[C@@H](Cc1c[nH]cn1)C(=O)N[C@H](C(=O)N[C@@H](C)C(=O)N[C@H](C(=O)N[C@@H](Cc1c[nH]c2ccccc12)C(=O)NCC(=O)N[C@@H](CCCNC(=N)N)C(=O)N1CCC[C@H]1C(=O)N[C@@H](Cc1ccccc1)C(=O)N[C@@H](Cc1ccccc1)C(=O)N[C@@H](CC(C)C)C(=O)N[C@@H](Cc1ccccc1)C(=O)N[C@@H](CCCNC(=N)N)C(=O)N1CCC[C@H]1C(=O)N[C@@H](CCCNC(=N)N)C(=O)N[C@@H](CC(N)=O)C(N)=O)[C@@H](C)O)[C@@H](C)O)[C@@H](C)O)C(C)C)[C@@H](C)O
B4: NMS5 (Pam-ILQRGSGTAAVDFTKKDHTATWGRPFFLFRPRN-CONH2) (peptide)
peptide: ILQRGSGTAAVDFTKKDHTATWGRPFFLFRPRN
HELM: PEPTIDE1{[CCCCCCCCCCCCCCCC(=O)[*:2]].I.L.Q.R.G.S.G.T.A.A.V.D.F.T.K.K.D.H.T.A.T.W.G.R.P.F.F.L.F.R.P.R.N.[am]}$$$$V2.0
SMILES: CCCCCCCCCCCCCCCC(=O)N[C@H](C(=O)N[C@@H](CC(C)C)C(=O)N[C@@H](CCC(N)=O)C(=O)N[C@@H](CCCNC(=N)N)C(=O)NCC(=O)N[C@@H](CO)C(=O)NCC(=O)N[C@H](C(=O)N[C@@H](C)C(=O)N[C@@H](C)C(=O)N[C@H](C(=O)N[C@@H](CC(=O)O)C(=O)N[C@@H](Cc1ccccc1)C(=O)N[C@H](C(=O)N[C@@H](CCCCN)C(=O)N[C@@H](CCCCN)C(=O)N[C@@H](CC(=O)O)C(=O)N[C@@H](Cc1c[nH]cn1)C(=O)N[C@H](C(=O)N[C@@H](C)C(=O)N[C@H](C(=O)N[C@@H](Cc1c[nH]c2ccccc12)C(=O)NCC(=O)N[C@@H](CCCNC(=N)N)C(=O)N1CCC[C@H]1C(=O)N[C@@H](Cc1ccccc1)C(=O)N[C@@H](Cc1ccccc1)C(=O)N[C@@H](CC(C)C)C(=O)N[C@@H](Cc1ccccc1)C(=O)N[C@@H](CCCNC(=N)N)C(=O)N1CCC[C@H]1C(=O)N[C@@H](CCCNC(=N)N)C(=O)N[C@@H](CC(N)=O)C(N)=O)[C@@H](C)O)[C@@H](C)O)[C@@H](C)O)C(C)C)[C@@H](C)O)[C@@H](C)CC
B5: NMS2 (Ac-C3ILQRGSGTAAVDFTKKDHTATWGRPFFLFRPRN-CONH2) (peptide)
peptide: Ac-C(cholesteroyl)ILQRGSGTAAVDFTKKDHTATWGRPFFLFRPRN-NH2
B6: NMS4 (Ac-C4ILQRGSGTAAVDFTKKDHTATWGRPFFLFRPRN-CONH2) (peptide)
peptide: Ac-C([maleimide-PEG 40 kDa])ILQRGSGTAAVDFTKKDHTATWGRPFFLFRPRN-NH2

Experiments:
Experiment in all cases: cell-based or functional assay
[1] = target: dog NMUR2 (dog)
[2] = target: T1, mouse NMUR1-ATG
[3] = target: T2, human NMUR1
[4] = target: T3, dog NMUR1-ATG
[5] = target: mouse NMUR2 (mouse, UniProt Q8BZ39 1-395)
Chain of mouse NMUR2 (Q8BZ39 whole entry): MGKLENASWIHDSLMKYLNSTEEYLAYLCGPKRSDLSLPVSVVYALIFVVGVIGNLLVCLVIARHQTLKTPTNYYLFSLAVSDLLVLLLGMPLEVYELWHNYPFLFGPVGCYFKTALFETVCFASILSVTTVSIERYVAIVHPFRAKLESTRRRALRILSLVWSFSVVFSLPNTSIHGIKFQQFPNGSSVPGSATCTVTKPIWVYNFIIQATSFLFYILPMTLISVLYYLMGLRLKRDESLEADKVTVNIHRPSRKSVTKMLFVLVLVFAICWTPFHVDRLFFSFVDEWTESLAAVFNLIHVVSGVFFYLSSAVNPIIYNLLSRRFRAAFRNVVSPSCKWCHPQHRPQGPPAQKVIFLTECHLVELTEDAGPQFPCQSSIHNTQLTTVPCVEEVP

[6] = target: human NMUR2 (human, UniProt Q9GZQ4 1-415)
Chain of human NMUR2 (Q9GZQ4 whole entry): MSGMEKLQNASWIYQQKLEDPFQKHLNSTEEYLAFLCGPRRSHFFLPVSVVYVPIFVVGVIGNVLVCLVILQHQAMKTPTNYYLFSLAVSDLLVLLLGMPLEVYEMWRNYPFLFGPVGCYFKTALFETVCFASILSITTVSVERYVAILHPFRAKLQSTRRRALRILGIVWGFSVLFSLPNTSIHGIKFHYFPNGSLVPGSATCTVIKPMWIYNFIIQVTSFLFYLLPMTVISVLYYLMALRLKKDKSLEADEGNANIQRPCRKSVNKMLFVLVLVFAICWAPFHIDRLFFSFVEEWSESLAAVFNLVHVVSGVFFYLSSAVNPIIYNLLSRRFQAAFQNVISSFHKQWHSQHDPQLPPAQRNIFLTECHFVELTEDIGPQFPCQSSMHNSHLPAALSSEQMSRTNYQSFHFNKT

Row | % Activity (maximum response at 1 µM compared to the human NMU-25 response) [1] [%] | % Activity (maximum response at 1 µM compared to the human NMU-25 response) [2] [%] | % Activity (maximum response at 1 µM compared to the human NMU-25 response) [3] [%] | % Activity (maximum response at 1 µM compared to the human NMU-25 response) [4] [%] | % Activity (maximum response at 1 µM compared to the human NMU-25 response) [5] [%] | % Activity (maximum response at 1 µM compared to the human NMU-25 response) [6] [%] | Binder
1 | 78 | 82 | 91 | 97 | 99 | 81 | B1
2 | 104 | 102 | 97 | 100 | 111 | 107 | B2
3 | 107 | 98 | 97 | 101 | 108 | 105 | B3
4 | 100 | 83 | 85 | 82 | 78 | 93 | B4
5 | 84 | 39 | 11 | 46 | 32 | 16 | B5
6 | 101 | 95 | 88 | 81 | 104 | 94 | B6
